Measurements reported in publication PMC10987609, “ATR limits Rad18-mediated PCNA monoubiquitination to preserve replication fork and telomerase-independent telomere stability” (The EMBO Journal, 2024).

Target: T1, ubiquitinated SFB-tagged PCNA purified from HEK293T cells (human | , UniProt P12004 1-261; P0CG48 1-76, ubiquitinated with His-tagged ubiquitin; the paper places Rad18-mediated monoubiquitination at lysine 164)
T1 construct: PCNA, human, full-length cDNA; wild-type ubiquitin (Ub), conjugated to PCNA; the transfected plasmid is probably the N-terminal one; also called ubiquitinated SFB-PCNA; monoubiquitinated PCNA; source: HEK293T stably expressing His-tagged Ub, transfected with SFB-PCNA, treated with HU and ATRi; purified (cobalt resin under denaturing conditions, then streptavidin beads, biotin elution)
Assay: pull-down; GST-UBZ4 on glutathione-Sepharose resin incubated with ubiquitinated SFB-tagged PCNA purified from HEK293T cells; NETN buffer, 4 °C, 1 h
Settings: both partners purified

B1: GST-SLX4-UBZ4-WT (domain or fragment, human, UniProt Q8IY92 292-361, looked up)
chain: GLFFCQICQKNLSAMNVTRREQHVNRCLDEAEKTLRPSVPQIPECPICGKPFLTLKSRTSHLKQCAVKME
notes: SLX4, human, fragment with the tandem UBZ4 domains, amino acids 292–361; also called GST-UBZ4; source: E. coli, purified (glutathione-Sepharose, used on beads)
B1: binds.
